# Test results from article PMC6850173 (Molecular Microbiology, 2019).
# Legend:
# [1] = substrate: Cc1cc2nc3c(=O)[nH]c(=O)nc-3n(C[C@H](O)[C@H](O)[C@H](O)COP(=O)(O)OP(=O)(O)OC[C@H]3O[C@@H](n4cnc5c(N)ncnc54)[C@H](O)[C@@H]3O)c2cc1C; test: HPLC of MTA-CoA formation, initial rates, nonlinear fit; type: biochemical, Roseovarius nubinhibens; conditions: MMPA-CoA as substrate, pH 9.0, 40°C, varied: cofactor
# [2] = substrate: CSCCC(=O)SCCNC(=O)CCNC(=O)[C@H](O)C(C)(C)COP(=O)(O)OP(=O)(O)OC[C@H]1O[C@@H](n2cnc3c(N)ncnc32)[C@H](O)[C@@H]1OP(=O)(O)O; test: as above; type: biochemical, Roseovarius nubinhibens; conditions: FAD, pH 9.0, 40°C
# crystal structure = target: the molecule itself; test: crystal structure
protein,measurement,setting,value
DmdC (ISM) (Roseovarius nubinhibens ISM; T170A) (protein) MTRYTAPTQDIQYLLHDVLDVANDPTPGYAELEPDFTSAVLEEAGKIAGEVLHPLNAVGDQEGCVLENGVVRPPKGFKEAFDQVREGGWTALDLPEQYGGQNMPYLLGTAVGEMFSGANQAFTMYQGLTHGAASAILVHGTDQQKDTYLPKMFSCDWTGTMNLTEPHCGADLGLMRSKAVPQDDGSYAISGQKIFISAGEHDMAENIIHLVLAKIPGGPEGIKGVSLFIVPKFLVKEDGSLGERNGVKCSKIEEKMGIHGNSTCVMDYDGAKGWLLGEEHKGMRAMFTMMNEARIGVGMQGLAQAEVAYQNALDYARDRLQGRSVTGVENPDGPADPLIVHPDIRRNLLDQKSFIEGARAFLLWGAQMIDRAERGKDEAAHGMVSLLTPVIKGFLTDEGYDMTVQAQQVYGGHGYIEETGMSQFTRDARIAMIYEGANGVQALDLVGRKLAQDGGKHVMAFFDLVKGFIKEAGTDGAMAEFTEPLKSASKDLQSAGMFFMQNGMKNPNAALAGSYDFMHLFGHVCLGLMWGRMAEASLKALAEGRGDANFHETKLATARFYMTRRLPATKLHLARIESGADPVMALDADRF,Km,[1],0.1125 ± 0.0045 mM
DmdC (ISM) (Roseovarius nubinhibens ISM; R284A) (protein) MTRYTAPTQDIQYLLHDVLDVANDPTPGYAELEPDFTSAVLEEAGKIAGEVLHPLNAVGDQEGCVLENGVVRPPKGFKEAFDQVREGGWTALDLPEQYGGQNMPYLLGTAVGEMFSGANQAFTMYQGLTHGAASAILVHGTDQQKDTYLPKMFSCDWTGTMNLTEPHCGTDLGLMRSKAVPQDDGSYAISGQKIFISAGEHDMAENIIHLVLAKIPGGPEGIKGVSLFIVPKFLVKEDGSLGERNGVKCSKIEEKMGIHGNSTCVMDYDGAKGWLLGEEHKGMAAMFTMMNEARIGVGMQGLAQAEVAYQNALDYARDRLQGRSVTGVENPDGPADPLIVHPDIRRNLLDQKSFIEGARAFLLWGAQMIDRAERGKDEAAHGMVSLLTPVIKGFLTDEGYDMTVQAQQVYGGHGYIEETGMSQFTRDARIAMIYEGANGVQALDLVGRKLAQDGGKHVMAFFDLVKGFIKEAGTDGAMAEFTEPLKSASKDLQSAGMFFMQNGMKNPNAALAGSYDFMHLFGHVCLGLMWGRMAEASLKALAEGRGDANFHETKLATARFYMTRRLPATKLHLARIESGADPVMALDADRF,Km,[2],12.4 ± 1.0 mM
"DmdB Lys523Ala mutant (Ruegeria lacuscaerulensis ITI_1157) (enzyme, UniProt P0DX84 1-539, looked up) MLGQMMTQPLLISSLIDHAARYHGQTEIVSVETDGTVTRTNWGEIAANARRMGSALTKLGLQPQDRIGTLAWNNRRHLEIYYAASGAGFVCHTINPRLFPEQLVYIINHAQDRVLFFDATFLPLVAAIRDQLTEVKHFVLMGPRNEDALQQIPGLEFYDELIETGDTDFEWPVFDENTASSLCYTSGTTGHPKGVLYSHRSTVLHSFASNTRDVIGYSAMDVVMPVVPMFHVNAWGSPYGCAMSGAQMVLPGPDLHGEALVNLIDTYGVTLAMGVPTIWQGLLAHAAKCGTKLESLERTVIGGAACPPSMIATFREKYGVDTVHAWGMSEMSPLGTANIPLAKHRKLPIEEQHKLRENQGRPPFGVELKIVDDDGNDLPHDGVTQGDLMVRGHWVLDSYFQLKDQELLQDGWFATGDVATLDPDGYMTIRDRSKDIIKSGGEWISSVELENIAVAHPKLATAAVIGVPHPKWDERPLLVAVKAEGEDPSEAELLEFFDGKIAKWQVPDKVVFVDALPLNATGAVLKRKLRDEFKDALTG",binding result,crystal structure,binds
